These results are taken from patent US20050288223A1.

For the test, the target named is mouse LSR (lipolysis stimulated receptor) (mouse) (UniProt Q99KG5). In words: cell-based or functional assay.
Sequence of UniProt Q99KG5 (Q99KG5 36-594): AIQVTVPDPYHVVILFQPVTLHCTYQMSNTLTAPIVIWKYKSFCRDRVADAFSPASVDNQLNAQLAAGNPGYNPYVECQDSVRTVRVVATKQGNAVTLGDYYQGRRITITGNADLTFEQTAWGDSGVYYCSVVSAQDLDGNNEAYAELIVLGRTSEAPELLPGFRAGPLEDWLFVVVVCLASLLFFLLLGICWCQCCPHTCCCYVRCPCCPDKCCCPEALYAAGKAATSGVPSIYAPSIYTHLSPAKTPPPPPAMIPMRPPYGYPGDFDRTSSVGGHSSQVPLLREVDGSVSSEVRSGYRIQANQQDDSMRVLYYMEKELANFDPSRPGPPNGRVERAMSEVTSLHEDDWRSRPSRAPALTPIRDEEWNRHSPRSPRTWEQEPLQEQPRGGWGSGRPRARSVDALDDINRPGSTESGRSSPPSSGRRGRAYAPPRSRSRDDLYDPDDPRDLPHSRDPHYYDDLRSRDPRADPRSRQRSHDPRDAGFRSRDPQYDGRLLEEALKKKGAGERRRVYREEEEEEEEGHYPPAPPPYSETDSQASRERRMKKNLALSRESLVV

“125I-mouse leptin (from UniProt P41160 22-167) (ligand)” gave a cell-associated 125I-leptin in BPRCL mouse liver cells after pre-incubation with increasing AdipoQ (AQ) or globular AdipoQ (AQ-GH) of over 30%.
